1 molecule from paper PMC5566498, “SIRT7 antagonizes TGF-β signaling and inhibits breast cancer metastasis” (Nature Communications, 2017) can be followed below.

The target in the experiment is T1, 6× His-tagged SMAD4 (UniProt Q13485 1-552).
T1 construct: SMAD4; also called 6× His-SMAD4; source: purified from bacterial culture
T1 sequence (looked up): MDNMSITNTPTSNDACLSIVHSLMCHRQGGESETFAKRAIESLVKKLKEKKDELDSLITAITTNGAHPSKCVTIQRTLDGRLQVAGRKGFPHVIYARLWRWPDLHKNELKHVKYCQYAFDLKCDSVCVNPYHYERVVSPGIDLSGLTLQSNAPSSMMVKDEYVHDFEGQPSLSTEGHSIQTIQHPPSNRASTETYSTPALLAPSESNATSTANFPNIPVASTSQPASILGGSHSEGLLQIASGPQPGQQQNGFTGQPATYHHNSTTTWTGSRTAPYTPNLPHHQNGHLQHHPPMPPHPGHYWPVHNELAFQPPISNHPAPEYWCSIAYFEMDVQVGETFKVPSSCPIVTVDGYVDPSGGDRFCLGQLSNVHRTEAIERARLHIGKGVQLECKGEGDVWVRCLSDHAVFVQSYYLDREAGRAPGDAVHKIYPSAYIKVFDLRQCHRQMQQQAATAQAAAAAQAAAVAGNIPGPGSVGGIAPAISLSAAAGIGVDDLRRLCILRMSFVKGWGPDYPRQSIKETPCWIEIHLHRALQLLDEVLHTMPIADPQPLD
In words: pull-down; 1 µg GST-SIRT7 on Glutathione-Sepharose 4B, incubated with 6× His-SMAD4 for 2 h at 4 °C in 120 mM KCl, 20 mM Tris-HCl pH 7.9, 5 mM MgCl2, 0.2 mM EDTA, 10% glycerol, 0.2% NP-40; immunoblot. Particulars: both partners purified.

B1: GST-SIRT7 (enzyme, UniProt Q9NRC8 1-400, looked up)
chain: MAAGGLSRSERKAAERVRRLREEQQRERLRQVSRILRKAAAERSAEEGRLLAESADLVTELQGRSRRREGLKRRQEEVCDDPEELRGKVRELASAVRNAKYLVVYTGAGISTAASIPDYRGPNGVWTLLQKGRSVSAADLSEAEPTLTHMSITRLHEQKLVQHVVSQNCDGLHLRSGLPRTAISELHGNMYIEVCTSCVPNREYVRVFDVTERTALHRHQTGRTCHKCGTQLRDTIVHFGERGTLGQPLNWEAATEAASRADTILCLGSSLKVLKKYPRLWCMTKPPSRRPKLYIVNLQWTPKDDWAALKLHGKCDDVMRLLMAELGLEIPAYSRWQDPIFSLATPLRAGEEGSHSRKSLCRSREEAPPGDRGAPLSSAPILGGWFGRGCTKRTKRKKVT
notes: SIRT7; also called purified GST-SIRT7; recombinant GST-SIRT7; source: recombinant, purified
Regarding B1, the binding result is on record as “binds”.
